T1: GST-ZmTCP7 (Zea mays, UniProt B4FHV6 1-275)
T1 sequence: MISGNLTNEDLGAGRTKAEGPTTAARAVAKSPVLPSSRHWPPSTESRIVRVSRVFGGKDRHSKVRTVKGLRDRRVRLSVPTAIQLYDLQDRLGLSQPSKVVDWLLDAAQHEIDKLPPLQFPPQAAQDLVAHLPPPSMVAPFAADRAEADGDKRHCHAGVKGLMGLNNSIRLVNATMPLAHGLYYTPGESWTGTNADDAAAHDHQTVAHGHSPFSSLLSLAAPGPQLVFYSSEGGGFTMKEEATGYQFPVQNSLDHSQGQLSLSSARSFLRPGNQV

B1: unlabeled WT 30 bp competitor (dsDNA)
DNA 1: CACACTTTAGAACCCCACGCCTTTACCTAA
DNA 2: TTAGGTAAAGGCGTGGGGTTCTAAAGTGTG
B2: PMu (mutated ZmBt2 promoter 30 bp probe) (dsDNA)
DNA 1: CACACTTTAGAAAAAACAGCCTTTACCTAA
DNA 2: TTAGGTAAAGGCTGTTTTTTCTAAAGTGTG
B3: PWT (ZmBt2 promoter 30 bp probe) (dsDNA)
DNA 1: B1 DNA 1
DNA 2: B1 DNA 2

What was measured:
GST-ZmTCP7 [1] = molecular target: T1, GST-ZmTCP7; test: competition; unlabeled competitor vs PWT: considerably reduced at 50x, almost completely removed at 100x; LightShift chemiluminescent EMSA kit buffer (composition and pH not stated), 25 C, 30 min, 8% PAGE; conditions: protein: recombinant; tags: N-terminal GST (pGEX-6-1); chain copies: 2
GST-ZmTCP7 [2] = molecular target: T1, GST-ZmTCP7; test: EMSA; LightShift chemiluminescent EMSA kit buffer (composition and pH not stated), 25 C, 30 min, 8% PAGE; conditions: protein: recombinant; tags: N-terminal GST (pGEX-6-1); chain copies: 2; label: 3' biotin

Binder	binding result (GST-ZmTCP7 [1])	binding result (GST-ZmTCP7 [2])
B1	binds	
B2		no binding
B3		binds

Reference: article PMC9335043, “The novel ZmTCP7 transcription factor targets AGPase-encoding gene ZmBt2 to regulate storage starch accumulation in maize”
